From paper doi:10.1101/2021.04.26.441525 (bioRxiv, 2021)

Molecular target: the molecule itself
Test: crystal structure

B1: BT_1526 myo-inositol phosphate synthase (MIPS) of Bacteroides thetaiotaomicron VPI-5482 (enzyme, UniProt Q8A7J8 1-429, looked up)
chain: MKQEIKPATGRLGVLVVGVGGAVATTMIVGTLASRKGLAKPIGSITQLATMRMENNEEKLIKDVVPLTDLNDIVFGGWDIFPDNAYEAAMYAEVLKEKDLNGVKDELEAIKPMPAAFDHNWAKRLNGTHIKKAATRWEMVEQLRQDIRDFKAANNCERVVVLWAASTEIYIPLSDEHMSLAALEKAMKDNNTEVISPSMCYAYAAIAEDAPFVMGAPNLCVDTPAMWEFSKQKNVPISGKDFKSGQTLMKTVLAPMFKTRMLGVNGWFSTNILGNRDGEVLDDPDNFKTKEVSKLSVIDTIFEPEKYPDLYGDVYHKVRINYYPPRKDNKEAWDNIDIFGWMGYPMEIKVNFLCRDSILAAPIALDLVLFSDLAMRAGMCGIQTWLSFFCKSPMHDFEHQPEHDLFTQWRMVKQTLRNMIGEKEPDYLA
Question: With B1 as the protein, how does the “stoichiometry N” value read?
Answer: The value was 4.
